These results are taken from US20240254182A1 (PROVINCIAL HEALTH SERVICES AUTHORITY, published 2024).

The target in experiment [1] is T1, WT G-CSFR(Ig-CRH), purified, tag cleaved (human, UniProt Q99062 26-331).
T1 construct: also called G-CSFRWT; wild type G-CSFR(Ig-CRH)
T1 chain: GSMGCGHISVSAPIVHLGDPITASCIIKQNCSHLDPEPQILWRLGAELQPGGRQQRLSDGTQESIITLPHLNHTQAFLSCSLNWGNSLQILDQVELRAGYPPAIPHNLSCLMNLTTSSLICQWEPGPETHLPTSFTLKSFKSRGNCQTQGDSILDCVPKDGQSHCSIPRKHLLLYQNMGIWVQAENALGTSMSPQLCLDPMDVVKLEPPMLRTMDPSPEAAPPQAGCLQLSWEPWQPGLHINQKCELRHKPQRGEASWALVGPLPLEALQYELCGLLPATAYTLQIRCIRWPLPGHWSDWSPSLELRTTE
Description: SPR, WT G-CSFR(Ig-CRH) amine-coupled, G-CSFE injected, single-cycle kinetics. Here is the method:
(§1) The SPR binding assays were carried out on a Biacore T200 instrument (GE Healthcare, Mississauga, ON, Canada) with PBS-T (PBS+0.05% (v/v) Tween 20) running buffer at a temperature of 25° C. CM5 Series S sensor chip, Biacore amine coupling kit (NHS, EDC and 1 M ethanolamine), and 10 mM sodium acetate buffers were all purchased from GE Healthcare. PBS running buffer with 0.05% Tween20 (PBS-T) was purchased from Teknova Inc. (Hollister, CA). Designs were assessed in three different immobilization orientations.
(§2) To assess binding affinity of G-CSFE to G-CSFRWT, recombinant G-CSFRWT purified as described in Example 5 was captured as described above in this Example. Using single-cycle kinetics, six concentrations of a two-fold dilution series of each G-CSFE mutant starting at […] with a blank buffer control were sequentially injected as described above. The same sample titration was also performed on a reference cell with no variants captured. The G-CSFRWT surface was regenerated as described above.

For experiment [2], the target named is T2, design 134 G-CSFR(Ig-CRH)E, tag cleaved (human, UniProt Q99062 26-331).
T2 construct: also called design 137 G-CSFR(Ig-CRH)E
T2 chain: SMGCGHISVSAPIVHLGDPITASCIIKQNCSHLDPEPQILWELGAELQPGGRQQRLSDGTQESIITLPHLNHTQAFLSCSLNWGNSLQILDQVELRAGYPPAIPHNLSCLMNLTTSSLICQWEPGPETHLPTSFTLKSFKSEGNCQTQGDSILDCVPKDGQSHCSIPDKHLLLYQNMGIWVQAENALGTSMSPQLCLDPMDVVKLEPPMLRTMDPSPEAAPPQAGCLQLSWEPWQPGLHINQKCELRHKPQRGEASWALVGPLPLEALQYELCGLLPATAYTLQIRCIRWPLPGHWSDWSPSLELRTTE
Description: SPR, G-CSFRE amine-coupled, G-CSFE injected, single-cycle kinetics. Here is the method:
as §1
(§3) To determine binding affinity of G-CSFE to G-CSFRE the G-CSFRE mutant was captured by standard amine coupling as described by the manufacturer (GE LifeSciences). Briefly, immediately after EDC/NHS activation, a 5 μg/mL solution of G-CSFRE in 10 mM NaOAc, pH 5.0, was injected at a flow rate of 5 μL/min until a receptor density of ˜700-900 RU was reached. The remaining active groups were quenched by a 420 s injection of 1 M ethanolamine hydrochloride-NaOH pH 8.5 at 10 μL/min. Using single-cycle kinetics, six concentrations of a two-fold dilution series of the corresponding G-CSFE mutant starting at 200 nM with a blank buffer control were sequentially injected at 25 μL/min for 300 s with a 1800 s dissociation phase, resulting in a set of sensorgrams with a buffer blank reference. The same sample titration was also performed on a reference cell with no variants captured. The chip was regenerated to prepare for the next injection cycle by one pulse of 10 mM glycine/HCl, pH 2.0, for 30 s at 30 μL/min.
(§4) Double-referenced sensorgrams from duplicate or triplicate repeat injections were analyzed using Biacore™ T200 Evaluation Software v3.0 and fit to the 1:1 Langmuir binding model.
For orientation: Surface plasmon resonance follows binding to a sensor surface in real time, without labels.

The target in experiment [3] is T3, design 300 G-CSFR(Ig-CRH)E, tag cleaved (human, UniProt Q99062 26-331).
T3 chain: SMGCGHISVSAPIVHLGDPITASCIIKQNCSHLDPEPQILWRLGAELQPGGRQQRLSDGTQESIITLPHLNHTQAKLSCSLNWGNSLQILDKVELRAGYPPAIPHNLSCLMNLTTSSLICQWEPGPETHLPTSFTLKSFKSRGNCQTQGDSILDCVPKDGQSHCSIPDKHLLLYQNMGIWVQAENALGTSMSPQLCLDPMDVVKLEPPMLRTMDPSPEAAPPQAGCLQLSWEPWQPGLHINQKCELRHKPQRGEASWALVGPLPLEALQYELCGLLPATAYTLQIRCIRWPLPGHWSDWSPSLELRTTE
Described as above. Here is the method: as §1, §3, §4

In experiment [4] the target is T1, WT G-CSFR(Ig-CRH), purified, tag cleaved. Description: SPR (Biacore T200), WT receptor amine-coupled, cytokine injected. Here is the method: as §1, §2, §4
In experiment [5] the target is T4, combination design 402 G-CSFR(Ig-CRH)E with N-terminal hexahistidine tag (human, UniProt Q99062 25-331).
T4 chain: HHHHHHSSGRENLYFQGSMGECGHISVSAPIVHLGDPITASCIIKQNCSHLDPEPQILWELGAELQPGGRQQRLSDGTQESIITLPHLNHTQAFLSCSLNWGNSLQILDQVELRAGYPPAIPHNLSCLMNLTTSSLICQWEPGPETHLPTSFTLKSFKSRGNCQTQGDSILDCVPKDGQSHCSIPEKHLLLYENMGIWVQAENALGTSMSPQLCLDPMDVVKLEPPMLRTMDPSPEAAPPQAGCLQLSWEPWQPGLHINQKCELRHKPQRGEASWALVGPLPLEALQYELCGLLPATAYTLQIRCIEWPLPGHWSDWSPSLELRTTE
The experiment is described as follows: co-expression in insect cells, pulldown via the Twin Strep tag on G-CSF, reducing SDS-PAGE; G-CSFR(Ig-CRH) format. Here is the method:
(§5) The P2 viral stocks were tested for protein expression in small-scale. P2 virus was used to co-infect G-CSFE mutants with their corresponding G-CSFRE mutant in Trichoplusia ni (Tni) cells in 12-well plates. Separate co-infections for each design mutant were performed using the P2 stocks of G-CSFWT and GCSFR(CRH)WT, as well as for G-CSFE mutants alone. For each reaction, 2 mL of healthy log-phase Tni at 2×10⁶ cells ml⁻¹ was inoculated with 20 μl P2 virus. Plates were incubated at 27° C. for approximately 70 h with shaking at 135 rpm. […] Briefly, to each 1.8 mL reaction supernatant 0.2 mL 10× HEPES Buffered Saline (HBS: 20 mM HEPES pH8, 150 mM NaCl) was added to 1×, 20 μl bed volume (b.v) of purification beads added and reactions incubated for 30 minutes with end-over-end mixing at 24° C. An additional 20 μl b.v of purification beads was added followed by a second 30 minute incubation. Beads were pelleted by centrifugation at 2200 rpm for 3 minutes, supernatant was removed and the beads washed with 1× HBS buffer.
(§6) The co-expression assay with pulldown through the cytokine TST tag was performed as described above in Example 2, with the difference that the receptor constructs contained the Ig and CRH domains (residues 2-308, Table 1) referred to as G-CSFR(Ig-CRH).

For experiment [6], the target named is T5, combination design 401 G-CSFR(Ig-CRH)E with N-terminal hexahistidine tag (human, UniProt Q99062 25-331).
T5 chain: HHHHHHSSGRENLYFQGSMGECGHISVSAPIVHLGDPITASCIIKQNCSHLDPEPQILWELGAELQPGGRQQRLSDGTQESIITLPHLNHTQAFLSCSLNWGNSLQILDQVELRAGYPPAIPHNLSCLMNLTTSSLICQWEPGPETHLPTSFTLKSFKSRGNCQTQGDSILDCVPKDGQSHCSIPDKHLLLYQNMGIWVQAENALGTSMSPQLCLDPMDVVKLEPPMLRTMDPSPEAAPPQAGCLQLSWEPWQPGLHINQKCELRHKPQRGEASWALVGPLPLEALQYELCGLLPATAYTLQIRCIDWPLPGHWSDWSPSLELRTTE
Described as above. Here is the method:
as §5, §6

Experiment [7] has as its target T6, site II design 15 G-CSFR(CRH)E with N-terminal hexahistidine tag (human).
T6 construct: also called design #15 G-CSFRE
T6 chain: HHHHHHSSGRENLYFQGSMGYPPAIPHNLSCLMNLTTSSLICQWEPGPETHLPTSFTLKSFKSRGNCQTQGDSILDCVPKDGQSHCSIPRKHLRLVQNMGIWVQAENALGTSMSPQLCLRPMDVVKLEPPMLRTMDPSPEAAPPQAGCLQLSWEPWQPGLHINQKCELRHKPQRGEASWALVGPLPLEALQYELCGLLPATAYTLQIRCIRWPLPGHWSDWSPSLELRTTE
Description: WT G-CSF co-expressed with variant G-CSFR(CRH) in insect cells, pulldown via the Twin Strep tag on G-CSF, reducing SDS-PAGE. Here is the method: as §5

In experiment [8] the target is T7, site II design 30 G-CSFR(CRH)E with N-terminal hexahistidine tag (human, UniProt Q99062 120-331).
T7 construct: also called design #30 G-CSFRE
T7 chain: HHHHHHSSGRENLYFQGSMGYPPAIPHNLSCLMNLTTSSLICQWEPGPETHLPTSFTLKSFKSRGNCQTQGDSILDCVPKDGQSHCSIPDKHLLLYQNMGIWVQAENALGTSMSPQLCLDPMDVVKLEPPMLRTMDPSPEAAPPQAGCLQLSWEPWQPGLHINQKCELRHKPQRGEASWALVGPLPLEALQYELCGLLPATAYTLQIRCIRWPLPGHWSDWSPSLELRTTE
Described as above. Here is the method: as §5

The target in experiment [9] is T8, site II design 34 G-CSFR(CRH)E with N-terminal hexahistidine tag (human, UniProt Q99062 120-331).
T8 construct: also called design #34 G-CSFRE
T8 chain: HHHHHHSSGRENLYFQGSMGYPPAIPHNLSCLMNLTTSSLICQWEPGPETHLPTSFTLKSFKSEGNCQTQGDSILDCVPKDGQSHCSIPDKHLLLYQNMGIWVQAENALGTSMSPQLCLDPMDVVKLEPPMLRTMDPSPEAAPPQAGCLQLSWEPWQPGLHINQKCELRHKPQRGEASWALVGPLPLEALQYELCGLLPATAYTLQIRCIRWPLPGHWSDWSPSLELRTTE
The description is as above. Here is the method:
as §5

Experiment [10] has as its target T9, site II design 35 G-CSFR(CRH)E with N-terminal hexahistidine tag (human).
T9 construct: also called design #35 G-CSFRE
T9 chain: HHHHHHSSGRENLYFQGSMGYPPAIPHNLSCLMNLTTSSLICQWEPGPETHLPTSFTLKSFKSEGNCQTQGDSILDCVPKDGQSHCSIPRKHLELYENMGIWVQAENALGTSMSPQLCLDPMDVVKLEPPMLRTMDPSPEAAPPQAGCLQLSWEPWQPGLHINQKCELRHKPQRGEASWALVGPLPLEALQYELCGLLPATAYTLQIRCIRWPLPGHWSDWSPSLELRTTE
Described as above. Here is the method: as §5

B1: design 134 G-CSFE, tag cleaved (ligand)
chain: TPLGPASSLPQSFLLKCLEQVRKIQGDGAALQEKLCATYKLCHPERLVLLGHSLGIPWAPLSSCPSQALQLAGCLSQLHSGLFLYQGLLQALEGISPELGPTLDTLQKDVARFATTIWQQMRRLGMAPALQPTQGAMPAFASAFQRRAGGVLVASHLQSFLEVSYRVLRHLAQAAAENLYFQ
Turning to B1, the figures for the “KD fold change (against WT:WT)” value in experiment [1] and in experiment [2] were 465 fold and 1 fold, respectively.

B2: design 300 G-CSFE, tag cleaved (ligand)
chain: TPLGPASSLPQSFLLKCLEQVRKIQGDGAALQEKLCATYDDCHPEELVLLGHSLGIPWAPLSSCPSQALQLAGCLSQLHSGLFLYQGLLQALEGISPELGPTLDTLQKDVARFATTIWQQMEELGMAPALQPTQGAMPAFASAFQRRAGGVLVASHLQSFLEVSYRVLRHLAQAAAENLYFQ
notes: also called design 300 G-CSFE mutant
Take B2: in experiment [3], the “KD fold change (against WT:WT)” value was 194 fold. Further, the binding result in experiment [4] is “no binding”.

B3: WT G-CSF with C-terminal Twin Strep tag (ligand)
chain: not shown
notes: construct of the insect-cell co-expression pulldown; also called G-CSFWT
Turning to B3, the binding result in experiment [5], in experiment [6], in experiment [7], in [8], in experiment [9] and in [10] was “no binding” in each case.
